Reference: publication PMC12749308 (Nature Communications, 2025)
Where a chain is given by its changes, count along the chain named. Read-outs that look alike come from different tables or passages of the source.

Legend:
cryo-EM structure [1] = molecular target: the molecule itself; assay: cryo-EM structure
cryo-EM structure [2] = molecular target: the molecule itself; assay: cryo-EM structure; remark: listed apart in the source
[3] = molecular target: T1, hPLD3 luminal domain H201A/H416A (hPLD3_HA) (Homo sapiens, UniProt Q8IV08 61-490, H201A;H416A); assay: EMSA
T1 sequence: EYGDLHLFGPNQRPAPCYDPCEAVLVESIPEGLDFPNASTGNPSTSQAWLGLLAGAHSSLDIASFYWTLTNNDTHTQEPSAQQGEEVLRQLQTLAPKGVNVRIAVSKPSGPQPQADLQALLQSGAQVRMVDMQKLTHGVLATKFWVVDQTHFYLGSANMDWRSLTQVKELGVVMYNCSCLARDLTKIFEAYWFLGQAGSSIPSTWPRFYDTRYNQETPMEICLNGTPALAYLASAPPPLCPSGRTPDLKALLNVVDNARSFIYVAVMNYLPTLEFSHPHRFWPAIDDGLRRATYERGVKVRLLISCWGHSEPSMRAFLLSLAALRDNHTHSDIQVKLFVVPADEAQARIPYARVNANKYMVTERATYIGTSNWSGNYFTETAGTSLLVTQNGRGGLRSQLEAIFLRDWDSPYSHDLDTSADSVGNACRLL

B1: human PLD3 luminal domain, wild type (domain or fragment, UniProt Q8IV08 61-490, looked up)
chain: T1 sequence with A141H, A356H
modifications: four N-linked glycans observed in the cryo-EM structure (all sites except Asn97)
- stoichiometry N (cryo-EM structure [1]): 2

B2: human PLD4 luminal domain, wild type (domain or fragment, UniProt Q96BZ4 91-506, looked up)
chain: RDSCQLVLVESIPQDLPSAAGSPSAQPLGQAWLQLLDTAQESVHVASYYWSLTGPDIGVNDSSSQLGEALLQKLQQLLGRNISLAVATSSPTLARTSTDLQVLAARGAHVRQVPMGRLTRGVLHSKFWVVDGRHIYMGSANMDWRSLTQVKELGAVIYNCSHLAQDLEKTFQTYWVLGVPKAVLPKTWPQNFSSHFNRFQPFHGLFDGVPTTAYFSASPPALCPQGRTRDLEALLAVMGSAQEFIYASVMEYFPTTRFSHPPRYWPVLDNALRAAAFGKGVRVRLLVGCGLNTDPTMFPYLRSLQALSNPAANVSVDVKVFIVPVGNHSNIPFSRVNHSKFMVTEKAAYIGTSNWSEDYFSSTAGVGLVVTQSPGAQPAGATVQEQLRQLFERDWSSRYAVGLDGQAPGQDCVWQG
modifications: six N-linked glycans observed in the cryo-EM structure
- stoichiometry N (cryo-EM structure [2]): 4

B3: Substrate-I (49 nt) (ssDNA)
DNA: ACGTTCCTGATGCTAAGTATGCACTTCATCGTCAAGCAATGCTATGCAT
- binding result [3]: binds
